Results from the PETadex activity labels (doi:10.1016/s0021-9258(17)37371-4).

Substrate: Acetylcholine
Conditions: pH 8; 27 °C

| Protein | Km [µM] | kcat [s⁻¹] | kcat/Km [s⁻¹ M⁻¹] |
| --- | --- | --- | --- |
| unnamed (protein) MRPPQCLLHTPSLASPLLLLLLWLLGGGVGAEGREDAELLVTVRGGRLRGIRLKTPGGPVSAFLGIPFAEPPMGPRRFLPPEPKQPWSGVVDATTFQSVCYQAVDTLYPGFEGTEMWNPNRELSEDCLYLNVWTPYPRPTSPTPVLVWIYGGGFYSGASSLDVYDGRFLVQAERTVLVSMNYRVGAFGFLALPGSREAPGNVGLLDQRLALQWVQENVAAFGGDPTSVTLFGESAGAASVGMHLLSPPSRGLFHRAVLQSGAPNGPWATVGMGEARRRATQLAHLVGCPPGGTGGNDTELVACLRTRPAQVLVNHAAHVLPQESVFRFSFVPVVDGDFLSDTPEALINAGDFHGLQVLVGVVKDEGSYFLVYGAPGFSKDNESLISRAEFLAGVRVGVPQVSDLAAEAVVLHYTDWLHPEDPARLREALSDVVGDHNVVCPVAQLAGRLAAQGARVYAYVFEHRASTLSWPLWMGVPHGYEIEFIFGIPLDPSRNYTAEEKIFAQRLMRYWANFARTGDPNEPRDPKAPQWPPYTAGAQQYVSLDLRPLEVRRGLRAQACAFWNRFLPKLLSATDTLDEAERQWKAEFHRWSSYMVHWKNQFDHYSKQDRCSDL | 300 | 3330 | 1.11e+07 |
| unnamed (protein) MRPPQCLLHTPSLASPLLLLLLWLLGGGVGAEGREDAELLVTVRGGRLRGIRLKTPGGPVSAFLGIPFAEPPMGPRRFLPPEPKQPWSGVVDATTFQSVCYQYVDTLYPGFEGTEMWNPNRELSEDCLYLNVWTPYPRPTSPTPVLVWIYGGGFYSGASSLDVYDGRFLVQAERTVLVSMNYRVGAFGFLALPGSREAPGNVGLLDQRLALQWVQENVAAFGGDPTSVTLFGESAGAASVGMHLLSPPSRGLFHRAVLQSGAPNGPWATVGMGEARRRATQLAHLVGCPPGGTGGNDTELVACLRTRPAQVLVNHEWHVLPQESVFRASFVPVVDGDFLSDTPEALINAGDFHGLQVLVGVVKDEGSYFLVYGAPGFSKDNESLISRAEFLAGVRVGVPQVSDLAAEAVVLHYTDWLHPEDPARLREALSDVVGDHNVVCPVAQLAGRLAAQGARVYAYVFEHRASTLSWPLWMGVPHGYEIEFIFGIPLDPSRNYTAEEKIFAQRLMRYWANFARTGDPNEPRDPKAPQWPPYTAGAQQYVSLDLRPLEVRRGLRAQACAFWNRFLPKLLSATDTLDEAERQWKAEFHRWSSYMVHWKNQFDHYSKQDRCSDL | 310 | 2000 | 6.45e+06 |
| unnamed (protein) MRPPQCLLHTPSLASPLLLLLLWLLGGGVGAEGREDAELLVTVRGGRLRGIRLKTPGGPVSAFLGIPFAEPPMGPRRFLPPEPKQPWSGVVDATTFQSVCYQAVDTLYPGFEGTEMWNPNRELSEDCLYLNVWTPYPRPTSPTPVLVWIYGGGFYSGASSLDVYDGRFLVQAERTVLVSMNYRVGAFGFLALPGSREAPGNVGLLDQRLALQWVQENVAAFGGDPTSVTLFGESAGAASVGMHLLSPPSRGLFHRAVLQSGAPNGPWATVGMGEARRRATQLAHLVGCPPGGTGGNDTELVACLRTRPAQVLVNHEAHVLPQESVFRFSFVPVVDGDFLSDTPEALINAGDFHGLQVLVGVVKDEGSYFLVYGAPGFSKDNESLISRAEFLAGVRVGVPQVSDLAAEAVVLHYTDWLHPEDPARLREALSDVVGDHNVVCPVAQLAGRLAAQGARVYAYVFEHRASTLSWPLWMGVPHGYEIEFIFGIPLDPSRNYTAEEKIFAQRLMRYWANFARTGDPNEPRDPKAPQWPPYTAGAQQYVSLDLRPLEVRRGLRAQACAFWNRFLPKLLSATDTLDEAERQWKAEFHRWSSYMVHWKNQFDHYSKQDRCSDL | 300 | 7000 | 2.33e+07 |
| unnamed (protein) MRPPQCLLHTPSLASPLLLLLLWLLGGGVGAEGREDAELLVTVRGGRLRGIRLKTPGGPVSAFLGIPFAEPPMGPRRFLPPEPKQPWSGVVDATTFQSVCYQAVDTLYPGFEGTEMWNPNRELSEDCLYLNVWTPYPRPTSPTPVLVWIYGGGFYSGASSLDVYDGRFLVQAERTVLVSMNYRVGAFGFLALPGSREAPGNVGLLDQRLALQWVQENVAAFGGDPTSVTLFGESAGAASVGMHLLSPPSRGLFHRAVLQSGAPNGPWATVGMGEARRRATQLAHLVGCPPGGTGGNDTELVACLRTRPAQVLVNHAWHVLPQESVFRFSFVPVVDGDFLSDTPEALINAGDFHGLQVLVGVVKDEGSYFLVYGAPGFSKDNESLISRAEFLAGVRVGVPQVSDLAAEAVVLHYTDWLHPEDPARLREALSDVVGDHNVVCPVAQLAGRLAAQGARVYAYVFEHRASTLSWPLWMGVPHGYEIEFIFGIPLDPSRNYTAEEKIFAQRLMRYWANFARTGDPNEPRDPKAPQWPPYTAGAQQYVSLDLRPLEVRRGLRAQACAFWNRFLPKLLSATDTLDEAERQWKAEFHRWSSYMVHWKNQFDHYSKQDRCSDL | 240 | 6670 | 2.78e+07 |
| unnamed (protein) MRPPQCLLHTPSLASPLLLLLLWLLGGGVGAEGREDAELLVTVRGGRLRGIRLKTPGGPVSAFLGIPFAEPPMGPRRFLPPEPKQPWSGVVDATTFQSVCYQYVDTLYPGFEGTEMWNPNRELSEDCLYLNVWTPYPRPTSPTPVLVWIYGGGFYSGASSLDVYDGRFLVQAERTVLVSMNYRVGAFGFLALPGSREAPGNVGLLDQRLALQWVQENVAAFGGDPTSVTLFGESAGAASVGMHLLSPPSRGLFHRAVLQSGAPNGPWATVGMGEARRRATQLAHLVGCPPGGTGGNDTELVACLRTRPAQVLVNHEWHVLPQESVFRFSFVPVVDGDFLSDTPEALINAGDFHGLQVLVGVVKDEGSYFLVAGAPGFSKDNESLISRAEFLAGVRVGVPQVSDLAAEAVVLHYTDWLHPEDPARLREALSDVVGDHNVVCPVAQLAGRLAAQGARVYAYVFEHRASTLSWPLWMGVPHGYEIEFIFGIPLDPSRNYTAEEKIFAQRLMRYWANFARTGDPNEPRDPKAPQWPPYTAGAQQYVSLDLRPLEVRRGLRAQACAFWNRFLPKLLSATDTLDEAERQWKAEFHRWSSYMVHWKNQFDHYSKQDRCSDL | 300 | 4170 | 1.39e+07 |
| unnamed (protein) MRPPQCLLHTPSLASPLLLLLLWLLGGGVGAEGREDAELLVTVRGGRLRGIRLKTPGGPVSAFLGIPFAEPPMGPRRFLPPEPKQPWSGVVDATTFQSVCYQYVNTLYPGFEGTEMWNPNRELSEDCLYLNVWTPYPRPTSPTPVLVWIYGGGFYSGASSLDVYDGRFLVQAERTVLVSMNYRVGAFGFLALPGSREAPGNVGLLDQRLALQWVQENVAAFGGDPTSVTLFGESAGAASVGMHLLSPPSRGLFHRAVLQSGAPNGPWATVGMGEARRRATQLAHLVGCPPGGTGGNDTELVACLRTRPAQVLVNHEWHVLPQESVFRFSFVPVVDGDFLSDTPEALINAGDFHGLQVLVGVVKDEGSYFLVYGAPGFSKDNESLISRAEFLAGVRVGVPQVSDLAAEAVVLHYTDWLHPEDPARLREALSDVVGDHNVVCPVAQLAGRLAAQGARVYAYVFEHRASTLSWPLWMGVPHGYEIEFIFGIPLDPSRNYTAEEKIFAQRLMRYWANFARTGDPNEPRDPKAPQWPPYTAGAQQYVSLDLRPLEVRRGLRAQACAFWNRFLPKLLSATDTLDEAERQWKAEFHRWSSYMVHWKNQFDHYSKQDRCSDL | 600 | 4170 | 6.94e+06 |
| unnamed (protein) MRPPQCLLHTPSLASPLLLLLLWLLGGGVGAEGREDAELLVTVRGGRLRGIRLKTPGGPVSAFLGIPFAEPPMGPRRFLPPEPKQPWSGVVDATTFQSVCYQYVDTLYPGFEGTEMWNPNRELSEDCLYLNVWTPYPRPTSPTPVLVWIYGGGFYSGASSLDVYDGRFLVQAERTVLVSMNYRVGAFGFLALPGSREAPGNVGLLDQRLALQWVQENVAAFGGDPTSVTLFGESAGAASVGMHLLSPPSRGLFHRAVLQSGAPNGPWATVGMGEARRRATQLAHLVGCPPGGTGGNDTELVACLRTRPAQVLVNHAWHVLPQESVFRFSFVPVVDGDFLSDTPEALINAGDFHGLQVLVGVVKDEGSYFLVYGAPGFSKDNESLISRAEFLAGVRVGVPQVSDLAAEAVVLHYTDWLHPEDPARLREALSDVVGDHNVVCPVAQLAGRLAAQGARVYAYVFEHRASTLSWPLWMGVPHGYEIEFIFGIPLDPSRNYTAEEKIFAQRLMRYWANFARTGDPNEPRDPKAPQWPPYTAGAQQYVSLDLRPLEVRRGLRAQACAFWNRFLPKLLSATDTLDEAERQWKAEFHRWSSYMVHWKNQFDHYSKQDRCSDL | 280 | 6330 | 2.26e+07 |
| unnamed (protein) MRPPQCLLHTPSLASPLLLLLLWLLGGGVGAEGREDAELLVTVRGGRLRGIRLKTPGGPVSAFLGIPFAEPPMGPRRFLPPEPKQPWSGVVDATTFQSVCYQAVDTLYPGFEGTEMWNPNRELSEDCLYLNVWTPYPRPTSPTPVLVWIYGGGFYSGASSLDVYDGRFLVQAERTVLVSMNYRVGAFGFLALPGSREAPGNVGLLDQRLALQWVQENVAAFGGDPTSVTLFGESAGAASVGMHLLSPPSRGLFHRAVLQSGAPNGPWATVGMGEARRRATQLAHLVGCPPGGTGGNDTELVACLRTRPAQVLVNHEWHVLPQESVFRFSFVPVVDGDFLSDTPEALINAGDFHGLQVLVGVVKDEGSYFLVYGAPGFSKDNESLISRAEFLAGVRVGVPQVSDLAAEAVVLHYTDWLHPEDPARLREALSDVVGDHNVVCPVAQLAGRLAAQGARVYAYVFEHRASTLSWPLWMGVPHGYEIEFIFGIPLDPSRNYTAEEKIFAQRLMRYWANFARTGDPNEPRDPKAPQWPPYTAGAQQYVSLDLRPLEVRRGLRAQACAFWNRFLPKLLSATDTLDEAERQWKAEFHRWSSYMVHWKNQFDHYSKQDRCSDL | 130 | 6330 | 4.87e+07 |
| unnamed (protein) MRPPQCLLHTPSLASPLLLLLLWLLGGGVGAEGREDAELLVTVRGGRLRGIRLKTPGGPVSAFLGIPFAEPPMGPRRFLPPEPKQPWSGVVDATTFQSVCYQYVDTLYPGFEGTEMWNPNRELSEDCLYLNVWTPYPRPTSPTPVLVWIYGGGFYSGASSLDVYDGRFLVQAERTVLVSMNYRVGAFGFLALPGSREAPGNVGLLDQRLALQWVQENVAAFGGDPTSVTLFGESAGAASVGMHLLSPPSRGLFHRAVLQSGAPNGPWATVGMGEARRRATQLAHLVGCPPGGTGGNDTELVACLRTRPAQVLVNHEWHVLPQESVFRFSFVPVVDGDFLSDTPEALINAGDFHGLQVLVGVVKDEGSAFLVYGAPGFSKDNESLISRAEFLAGVRVGVPQVSDLAAEAVVLHYTDWLHPEDPARLREALSDVVGDHNVVCPVAQLAGRLAAQGARVYAYVFEHRASTLSWPLWMGVPHGYEIEFIFGIPLDPSRNYTAEEKIFAQRLMRYWANFARTGDPNEPRDPKAPQWPPYTAGAQQYVSLDLRPLEVRRGLRAQACAFWNRFLPKLLSATDTLDEAERQWKAEFHRWSSYMVHWKNQFDHYSKQDRCSDL | 100 | 1670 | 1.67e+07 |
